The source of these data is patent publication US20230192860A1 (Bristol-Myers Squibb, published 2023).

Experiment [1] has as its target T1, monovalent hVISTA-ECD (amino acids 32-193 of SEQ ID NO: 1 with a 7xHis tail) (human, UniProt Q9H7M9 33-193).
T1 construct: analyte of the SPR assays; also called huVISTA-His; human VISTA-ECD
The experiment in a line: SPR 37C, Ab on Protein A, hVISTA-ECD 50-5 nM, pH 6.0, average. Here is the method: Binding of several preparations of each of the ‘029 progeny clones and of the parent ‘029 antibodies, formatted as IgG1.3 antibodies, to human VISTA at pH 6.0 and 7.4 was measured by Surface plasmon resonance (SPR). SPR analysis was performed to measure koff and KD binding affinity measurements for VISTA Abs at acidic and neutral pHs using a Biacore® T100 instrument (GE Healthcare). […] Antibodies were diluted to 25 nM in PBST pH 7.4, and were captured across active biosensor flow cells at 5 ul/min for 60 seconds. A concentration series of 50 - 5 nM monovalent hVISTA-ECD (SEQ ID NO: 325) was prepared in pH 7.4 and 6.0 running buffers, and was injected over the captured antibodies at 40 ul/min to measure association and dissociation. Two 15 second injections of 10 mM glycine pH 1.5 were used to regenerate the Protein A capture surface between assay cycles. Rate constants ka (kₒₙ) and kd (koff) were derived from reference flow cell and 0 nM blank-subtracted sensorgrams, and were fit to a 1:1 binding model in Biacore® T200 Evaluation Software v.2.0. The affinity constant, KD was calculated as the ratio of rate constants koff/kₒₙ for each VISTA antibody.

Experiment [2] deals with T2, hVISTA-ECD 6-His tag (human, UniProt Q9H7M9 33-193).
T2 construct: also called monovalent hVISTA-ECD; human VISTA
T2 sequence (Q9H7M9 other isoform, or with tags, fused parts or gaps limits assumed): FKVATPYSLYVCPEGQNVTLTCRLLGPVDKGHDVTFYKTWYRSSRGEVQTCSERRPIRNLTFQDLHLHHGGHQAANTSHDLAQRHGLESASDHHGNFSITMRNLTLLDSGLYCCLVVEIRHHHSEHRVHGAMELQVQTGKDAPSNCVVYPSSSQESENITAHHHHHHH
Kind of experiment: SPR 37 C, Ab on Protein A, pH 6.0.

In experiment [3] the target is T2, hVISTA-ECD 6-His tag. The experiment in a line: SPR 37 C, Ab on Protein A, pH 7.4.
Experiment [4] addresses T2, hVISTA-ECD 6-His tag. The experiment in a line: SPR, Ab on Protein A, hVISTA analyte, pH 6.45. (In SPR one partner is held on a chip, and binding of the other changes the refractive index at the surface.)
Experiment [5] has as its target T2, hVISTA-ECD 6-His tag. The experiment in a line: SPR, Ab on Protein A, hVISTA analyte, pH 6.0.
Experiment [6] concerns the target T2, hVISTA-ECD 6-His tag. The experiment in a line: SPR, Ab on Protein A, hVISTA analyte, pH 6.9. Here is the method: Further binding kinetic experiments were performed at various pHs on VISTA antibodies described herein by SPR as generally described in Example 9 above. Antibodies were normalized to 50 nM concentration in PBST pH 7.4 and captured on a Protein A CM5 chip (ID 4931) by injecting for 45 seconds at a 5 µL/min flow rate. An 8-point human VISTA titration ([…]) was prepared in PBST at pH 7.4, 6.9, 6.45, and 6.0. Titrations were injected over the captured antibodies for 180 seconds at 30 µL/min. Sensorgrams were fit to a 1:1 binding model in T200 evaluation software and the kinetic constants were reported.
Each table reports the data at one of the four tested pHs (7.4, 6.9, 6.45, and 6.0, respectively). The 8-point hVISTA titration used in these assays was chosen to provide increased confidence in kinetic values reported at neutral pH conditions. A relatively stringent cutoff for non-binding was applied in this assay. Certain progeny of P1-061029 antibody (P1-068757, ‘759, ‘765, ‘771, and ‘775) show no binding to hVISTA at micromolar concentrations at pH 7.4, while ‘761 and ‘767 show no binding to hVISTA at 100 nM at pH 7.4 but do show binding to hVISTA at micromolar concentrations.

Substitutions are numbered along the chain they refer to. In names and notes the source's numbering stands. Several values for one entry are separate records, joined by “and”; a condition that tells them apart may be missing. Equal entries are not always repeated.

T1 sequence (Q9H7M9 other isoform, or with tags, fused parts or gaps limits assumed): as above

B1: P1-068736 (antibody, human IgG1, kappa, V domains shown)
VH: QVQLVESGGGVVQPGRSLRLSCAASGFTFSEYAMHWVRQAPGKGLEWVAIDWYDGSNKDYADSVKGRFTISRDNSKNTLYLQMNSLRAEDTAVYYCARDSGFYDSYYFDDWGQGTLVTVSS
VL: EIVLTQSPATLSLSPGERATLSCRASQSVSSSYLAWYQQKPGQAPRLLIYDASNRATGIPARFSGSGSGTDFTLTISSLEPEDFATYYCQQYNSYPYTFGQGTKLEIKR
notes: IgG1.3
Broadly, the Kd is the free concentration of one partner at which half of the binding sites on the other are occupied at equilibrium, for simple one-to-one binding. Read a high Kd as lower affinity. For orientation: koff means the rate constant with which the complex falls apart. A word on the kon: it is a measure of how fast the partners come together. In experiment [1], B1 registered a Kd of 1.1 nM, a koff of 0.0095 s⁻¹ and a kon of 8.4e+06 M⁻¹ s⁻¹.

B2: P1-077835 (P1-068744 E31S) (antibody, V domains shown)
VH: B1 VH with E31S, I50H, D51I, D59Y, Y60E, D104E, D110E
VL: EIVLTQSPATLSLSPGERATLSCRASQSVSSSYLAWYQQKPGQAPRLLIYDASNRATGIPARFSGSGSGTDFTLTISSLEPEDFATYYCQQYNSYPYTFGQGTKLEIK
In experiment [2], B2 returned a Kd of 7.7 nM, a koff of 0.0017 s⁻¹ and a kon of 220000 M⁻¹ s⁻¹. In experiment [3], this molecule came in with a Kd of 660 nM, a koff of 0.026 s⁻¹ and a kon of 39000 M⁻¹ s⁻¹.

B3: P1-077845 (P1-068744 E31S H50I) (antibody, V domains shown)
VH: B1 VH with E31S, D51I, D59Y, Y60E, D104E, D110E
VL: B2 VL
On to B3, for which, in experiment [2], binding was characterised by a dissociation constant (Kd) of 1.7 nM, the koff is 0.002 s⁻¹ and the kon stood at 1.2e+06 M⁻¹ s⁻¹. Besides, in experiment [3], the Kd is 14 nM, the koff amounted to 0.0038 s⁻¹ and the association rate constant (kon) turned out to be 280000 M⁻¹ s⁻¹.

B4: P1-077839 (P1-068744 E59Y) (antibody, V domains shown)
VH: B1 VH with I50H, D51I, D59Y, D104E, D110E
VL: B2 VL
In experiment [2], B4 gave a Kd of 85 nM, a koff of 0.054 s⁻¹ and a kon of 630000 M⁻¹ s⁻¹. In experiment [3], binding was put at a Kd of 1300 nM, the off-rate constant (koff) is 0.093 s⁻¹ and the kon amounted to 71000 M⁻¹ s⁻¹.

B5: P1-068752 (antibody, human IgG1, kappa, V domains shown)
VH: B1 VH with E31S, I50E, D51I, D110E
VL: B1 VL
notes: IgG1.3
On to B5, for which, in experiment [1], binding was put at a Kd of 5.6 nM, the koff was determined as 0.034 s⁻¹ and the kon turned out to be 6.1e+06 M⁻¹ s⁻¹.

B6: P1-077837 (P1-068744 H50I) (antibody, V domains shown)
VH: B1 VH with D51I, D59Y, Y60E, D104E, D110E
VL: B2 VL
For B6, in experiment [2], binding was put at a Kd of 2.5 nM, the koff was 0.003 s⁻¹ and the kon is 1.2e+06 M⁻¹ s⁻¹. Also, in experiment [3], the affinity, expressed as Kd, was 26 nM; the koff amounted to 0.0033 s⁻¹; the kon came out at 130000 M⁻¹ s⁻¹.

B7: P1-077843 (P1-068744 E102Y) (antibody, V domains shown)
VH: B1 VH with I50H, D51I, D59Y, Y60E, D104E, D110Y
VL: B2 VL
For the molecule B7, in experiment [2], binding was characterised by a dissociation constant (Kd) of 33 nM, the koff is 0.0048 s⁻¹ and the kon was found to be 150000 M⁻¹ s⁻¹. In experiment [3], this molecule registered a Kd of 2000 nM, a koff of 0.034 s⁻¹ and a kon of 18000 M⁻¹ s⁻¹.

B8: P1-068744 (antibody, human IgG1, kappa, V domains shown)
VH: B1 VH with I50H, D51I, D59Y, Y60E, D104E, D110E
VL: B1 VL
notes: IgG1.3; also called P1-068744-7
On to B8, for which, in experiment [1], binding was characterised by a dissociation constant (Kd) of 1.3 nM, the koff amounted to 0.0018 s⁻¹ and the kon was 1.3e+06 M⁻¹ s⁻¹.

B9: P1-077841 (P1-068744 E100S) (antibody, V domains shown)
VH: B1 VH with I50H, D51I, D59Y, Y60E, D104S, D110E
VL: B2 VL
In experiment [2], B9 displayed a Kd of 200 nM, a koff of 0.11 s⁻¹ and a kon of 520000 M⁻¹ s⁻¹. In experiment [3], this molecule came in with a Kd of 910 nM, a koff of 0.3 s⁻¹ and a kon of 330000 M⁻¹ s⁻¹.

B10: P1-068757 (antibody, human IgG1, kappa, V domains shown)
VH: EVQLVESGGGLVQPGKSLRLSCAASGFTLEDEAMHWVRQAPGKGLEWVSGINWNSEEIGYADSVKGRFTISRDNAKNSLYLQMNSLRTEDTALYYCAKVPGYSGGWIDAEDDWGQGTMVTVSS
VL: not shown
notes: IgG1.3; also called P1-068757-9
In experiment [1], B10 displayed a Kd of 19 nM, a koff of 0.017 s⁻¹ and a kon of 890000 M⁻¹ s⁻¹.

B11: P1-068769 (antibody, human IgG1, kappa, V domains shown)
VH: B10 VH with E56D, E57H
VL: not shown
notes: IgG1.3
Consider B11, for which, in experiment [1], the affinity, expressed as Kd, was 55 nM; the koff was found to be 0.04 s⁻¹; the kon turned out to be 810000 M⁻¹ s⁻¹.

B12: P1-068771 (antibody, human IgG1, kappa, V domains shown)
VH: B10 VH with E56H
VL: not shown
notes: IgG1.3; also called P1-068771-10
For B12, in experiment [1], the Kd was found to be 25 nM, the koff is 0.018 s⁻¹ and the on-rate constant (kon) came to 760000 M⁻¹ s⁻¹.

B13: P1-068773 (antibody, human IgG1, kappa, V domains shown)
VH: B10 VH with E32Y, N52D, E56D, E57N
VL: not shown
notes: IgG1.3
In experiment [1], B13 registered a Kd of 9.4 nM, a koff of 0.0029 s⁻¹ and a kon of 300000 M⁻¹ s⁻¹.

B14: P1-068759 (antibody, human IgG1, kappa, V domains shown)
VH: B10 VH with N52D, E57N
VL: not shown
notes: IgG1.3; also called P1-068759-9
In experiment [1], B14 displayed a Kd of 60 nM, an off-rate (koff) of 0.08 s⁻¹ and a kon of 1.3e+06 M⁻¹ s⁻¹.

B15: P1-068765 (antibody, human IgG1, kappa, V domains shown)
VH: B10 VH with L29D, E32Y
VL: not shown
notes: IgG1.3; also called P1-068765-10
In experiment [1], B15 had a Kd of 19 nM, a koff of 0.007 s⁻¹ and a kon of 370000 M⁻¹ s⁻¹.

B16: P1-068775 (antibody, human IgG1, kappa, V domains shown)
VH: B10 VH with N52D, G104H
VL: not shown
notes: IgG1.3; also called P1-068775-8
In experiment [1], B16 gave an equilibrium dissociation constant (Kd) of 23 nM, a koff of 0.047 s⁻¹ and a kon of 1.8e+06 M⁻¹ s⁻¹.

B17: P1-072000 (P1-061029_F100fE_V102D) (antibody, human IgG1, kappa, V domains shown)
VH: B10 VH with E30D, E32Y, E56A, E57N
VL: not shown
notes: also called P1-072000-3; P1-72000
B17: in experiment [4], the Kd was 47 nM and 27 nM; the koff is 0.0053 s⁻¹ and 0.0044 s⁻¹; the kon was 110000 M⁻¹ s⁻¹ and 160000 M⁻¹ s⁻¹. In experiment [5], the Kd is 11 nM and 5.8 nM; the koff is 0.0027 s⁻¹ and 0.0026 s⁻¹; the kon was 250000 M⁻¹ s⁻¹ and 450000 M⁻¹ s⁻¹. Further, in experiment [6], the Kd was 280 nM and 250 nM; the koff worked out at 0.011 s⁻¹; the kon is 39000 M⁻¹ s⁻¹ and 42000 M⁻¹ s⁻¹.

B18: P1-069061 (antibody, human IgG1, kappa, V domains shown)
VH: B10 VH with E32Y, E56A
VL: not shown
notes: IgG1.3
In experiment [1], B18 had a Kd of 2.5 nM, a koff of 0.0011 s⁻¹ and a kon of 430000 M⁻¹ s⁻¹.

B19: P1-068759 (antibody, human IgG1, kappa, V domains shown)
VH: B10 VH with N52D, E57N
VL: not shown
notes: also called P1-068759-9; 029 progeny
For the molecule B19, in experiment [5], the Kd is 96 nM, the koff came out at 0.058 s⁻¹ and the kon worked out at 600000 M⁻¹ s⁻¹.

B20: P1-069059 (antibody, human IgG1, kappa, V domains shown)
VH: B10 VH with E32Y, E56D, E57H
VL: not shown
notes: IgG1.3
In experiment [1], B20 had a Kd of 4.8 nM, a koff of 0.0016 s⁻¹ and a kon of 340000 M⁻¹ s⁻¹.

B21: P1-069073 (antibody, human IgG1, kappa, V domains shown)
VH: B10 VH with E56A, D112V
VL: not shown
notes: IgG1.3
In experiment [1], B21 yielded a Kd of 9.4 nM, a koff of 0.0058 s⁻¹ and a kon of 610000 M⁻¹ s⁻¹.
